Measurements from paper PMC4895914 (2014).
Square brackets hold non-standard residues; d marks the D form. Ends that are not written are not given here. * marks the point of attachment. His(π-(CH2)8Ph,τ-CH2CH2CH(OH)CH2OH) = His N(pi)-(CH2)8Ph and N(tau)-CH2CH2CH(OH)CH2OH; FITC = O=C1OC2(c3ccc(O)cc3Oc3cc(O)ccc32)c2ccc(NC(=S)*)cc21; His(π-(CH2)8Ph) = N[C@@H](Cc1cncn1CCCCCCCCc1ccccc1)C(=O)O; pT = C[C@@H](OP(=O)(O)O)[C@H](N)C(=O)O; PEG = not defined here

B1: Plk2 PBD PBD (protein)
chain: HLSSPAKNFFKKAAAALFGGKKDKARYIDTHNRVSKEDEDIYKLRHDLKKTSITQQPSKHRTDEELQPPTTTVARSGTPAVENKQQIGDAIRMIVRGTLGSCSSSSECLEDSTMGSVADTVARVLRGCLENMPEADCIPKEQLSTSFQWVTKWVDYSNKYGFGYQLSDHTVGVLFNNGAHMSLLPDKKTVHYYAELGQCSVFPATDAPEQFISQVTVLKYFSHYMEENLMDGGDLPSVTDIRRPRLYLLQWLKSDKALMMLFNDGTFQVNFYHDHTKIIICSQNEEYLLTYINEDRISTTFRLTTLLMSGCSSELKNRMEYALNMLLQRCN
B2: Plk3 PBD PBD (protein)
chain: TPPNPARSLFAKVTKSLFGRKKKSKNHAQERDEVSGLVSGLMRTSVGHQDARPEAPAASGPAPVSLVETAPEDSSPRGTLASSGDGFEEGLTVATVVESALCALRNCIAFMPPAEQNPAPLAQPEPLVWVSKWVDYSNKFGFGYQLSSRRVAVLFNDGTHMALSANRKTVHYNPTSTKHFSFSVGAVPRALQPQLGILRYFASYMEQHLMKGGDLPSVEEVEVPAPPLLLQWVKTDQALLMLFSDGTVQVNFYGDHTKLILSGWEPLLVTFVARNRSACTYLASHLRQLGCSPDLRQRLRYALRLLRDRSPA

Legend:
Assay in all cases: fluorescence polarization
2a* = biological target: T1, 2a* (not fully specified; reading uncertain)
T1 chain: {FITC-PEG}-PL[His(π-(CH2)8Ph)]S[pT]

3c* = biological target: T2, 3c* (not fully specified (residue 3); reading uncertain; also: His N(tau)-hydroxyalkyl, not given here)
T2 chain: {FITC-PEG}-PLHS[pT]

3m* = biological target: T3, 3m* (not fully specified; reading uncertain)
T3 chain: {FITC-PEG}-PL[His(π-(CH2)8Ph,τ-CH2CH2CH(OH)CH2OH)]S[pT]

Row | Binder | Kd (2a*) [nM] | Kd (3c*) [nM] | Kd (3m*) [nM]
1 | B1 | 400 | 43 | 24
2 | B2 | 306 | 240 | 62
